Results: patent US12269859B2, “Synthetic immune receptors and methods of use thereof” (Angeles Therapeutics, Inc., priority 2016, dated 2025)

Tested on: target antigen-expressing cell line
Assay: Jurkat NFAT-GFP assay, coculture with target cell lines expressing the respective target antigen (summary Table 10A)
Format: cell-based, human
Parameters: key: The signs +/−, +, 2+ etc. after the name of the cell lines indicate the relative degree of positivity on the Jurkat-NFAT-GFP assay as measured by the % GFP positive cells; +: relative degree of positivity on the Jurkat-NFAT-GFP assay as measured by the % GFP positive cells; 2+: relative degree of positivity on the Jurkat-NFAT-GFP assay as measured by the % GFP positive cells
Details: relative % GFP positive cells; for NFAT-GFP ASSAY Positive Cell lines: HL60: SIR-expressing Jurkat-NFAT-GFP cells cocultured with HL60
Method in brief: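 Jurkat cells carrying an NFAT-site IL-2 promoter driving GFP were lentivirally transduced with SIRs, puromycin-selected, then cocultured with antigen-expressing target cells at E:T about 1:2 for about 4–18 hours. GFP induction was read by flow cytometry as % GFP-positive cells versus parental Jurkat-NFAT-GFP.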

B1: 051116-C05 (protein)
chain: MALPVTALLLPLALLLHAARPDIVMTQSPDSLAVSLGERATINCRASKSVSTSGYSFMHWYQQKPGQPPKLLIYLASNLESGVPDRFSGSGSGTDFTLTISSLQAEDVAVYYCQHSREVPWTFGQGTKVEIKRLEDLKNVFPPEVAVFEPSEAEISHTQKATLVCLATGFYPDHVELSWWVNGKEVHSGVSTDPQPLKEQPALNDSRYCLSSRLRVSATFWQNPRNHFRCQVQFYGLSENDEWTQDRAKPVTQIVSAEAWGRADCGFTSESYQQGVLSATILYEILLGKATLYAVLVSALVLMAMVKRKDSRGRAKRSGSGATNFSLLKQAGDVEENPGPTSMDWIWRILFLVGAATGAHSFEQVQLVQSGAEVKKPGASVKVSCKASGYTFTNYGMNWVRQAPGQGLEWMGWINTYTGEPTYADAFKGRFAFSLDTSTSTAYLQINSLRSDDTAVYYCARDYGDYGMDYWGQGTTVTVSSTRIQNPDPAVYQLRDSKSSDKSVCLFTDFDSQTNVSQSKDSDVYITDKTVLDMRSMDFKSNSAVAWSNKSDFACANAFNNSIIPEDTFFPSPESSCDVKLVEKSFETDTNLNFQNLSVIGFRILLLKVAGFNLLMTLRLWSSRAKRSGSGVKQTLNFDLLKLAGDVESNPGPSRGHMTEYKPTVRLATRDDVPRAVRTLAAAFADYPATRHTVDPDRHIERVTELQELFLTRVGLDIGKVWVADDGAAVAVWTTPESVEAGAVFAEIGPRMAELSGSRLAAQQQMEGLLAPHRPKEPAWFLATVGVSPDHQGKGLGSAVVLPGVEAAERAGVPAFLETSAPRNLPFYERLGFTVTADVEVPEGPRTWCMTRKPGA
modifications: Synthetic Immune Receptor (SIR)
For B1, which “NFAT-GFP ASSAY Positive Cell lines: THP1” value (SIR-expressing Jurkat-NFAT-GFP cells cocultured with THP1) is on record?
The value was “THP1 (+/−)”.

B2: 032216-W04 (protein)
chain: MALPVTALLLPLALLLHAARPDEIVLTQSPGSLAVSPGERVTMSCKSSQSVFFSSSQKNYLAWYQQIPGQSPRLLIYWASTRESGVPDRFTGSGSGTDFTLTISSVQPEDLAIYYCHQYLSSRTFGQGTKLEIKRLEGKPIPNPLLGLDSTGSGEDLKNVFPPEVAVFEPSKAEIAHTQKATLVCLATGFYPDHVELSWWVNGKEVHSGVCTDPQPLKEQPALNDSRYCLSSRLRVSATFWQNPRNHFRCQVQFYGLSENDEWTQDRAKPVTQIVSAEAWGRADCGITSASYHQGVLSATILYEILLGKATLYAVLVSALVLMAMVKRKDSRGRAKRSGSGATNFSLLKQAGDVEENPGPTSMDWIWRILFLVGAATGAHSFEQVQLQQPGAEVVKPGASVKMSCKASGYTFTSYYIHWIKQTPGQGLEWVGVIYPGNDDISYNQKFQGKATLTADKSSTTAYMQLSSLTSEDSAVYYCAREVRLRYFDVWGQGTTVTVSSTREQKLISEEDGSGIQNPDPAVYQLRDSKSSDKSVCLFTDFDSQTNVSQSKDSDVYITDKCVLDMRSMDFKSNSAVAWSNKSDFACANAFNNSIIPEDTFFPSSDVPCDVKLVEKSFETDTNLNFQNLSVIGFRILLLKVAGFNLLMTLRLWSSRAKRSGSGVKQTLNFDLLKLAGDVESNPGPSRGHMTEYKPTVRLATRDDVPRAVRTLAAAFADYPATRHTVDPDRHIERVTELQELFLTRVGLDIGKVWVADDGAAVAVWTTPESVEAGAVFAEIGPRMAELSGSRLAAQQQMEGLLAPHRPKEPAWFLATVGVSPDHQGKGLGSAVVLPGVEAAERAGVPAFLETSAPRNLPFYERLGFTVTADVEVPEGPRTWCMTRKPGA
modifications: Polynucleotide encoding a Synthetic Immune Receptor (SIR)
B2 was tested. Which “NFAT-GFP ASSAY Positive Cell lines: HL60” value did it give?
Its value is “HL60 (+), MOLM13”.

B3: 022217-X03 (protein)
chain: MALPVTALLLPLALLLHAARPLEGKPIPNPLLGLDSTGSGEDLKNVFPPEVAVFEPSKAEIAHTQKATLVCLATGFYPDHVELSWWVNGKEVHSGVCTDPQPLKEQPALNDSRYCLSSRLRVSATFWQNPRNHFRCQVQFYGLSENDEWTQDRAKPVTQIVSAEAWGRADCGITSASYHQGVLSATILYEILLGKATLYAVLVSALVLMAMVKRKDSRGRAKRSGSGATNFSLLKQAGDVEENPGPTSMALPVTALLLPLALLLHAARPDIQMTQSPSSLSASVGDRVTINCKASQDINSYLSWFQQKPGKAPKTLIYRANRLVDGVPSRFSGSGSGQDYTLTISSLQPEDFATYYCLQYDEFPLTFGGGTKVEIKGGGGSGGGGSGGGGSQVQLVQSGAEVKKPGASVKVSCKASGYTFTNYDINWVRQAPGQGLEWIGWIYPGDGSTKYNEKFKAKATLTADTSTSTAYMELRSLRSDDTAVYYCASGYEDAMDYWGQGTTVTVSSTREQKLISEEDGSGIQNPDPAVYQLRDSKSSDKSVCLFTDFDSQTNVSQSKDSDVYITDKCVLDMRSMDFKSNSAVAWSNKSDFACANAFNNSIIPEDTFFPSSDVPCDVKLVEKSFETDTNLNFQNLSVIGFRILLLKVAGFNLLMTLRLWSSRAKRSGSGVKQTLNFDLLKLAGDVESNPGPSRGHMTEYKPTVRLATRDDVPRAVRTLAAAFADYPATRHTVDPDRHIERVTELQELFLTRVGLDIGKVWVADDGAAVAVWTTPESVEAGAVFAEIGPRMAELSGSRLAAQQQMEGLLAPHRPKEPAWFLATVGVSPDHQGKGLGSAVVLPGVEAAERAGVPAFLETSAPRNLPFYERLGFTVTADVEVPEGPRTWCMTRKPGA
Which “NFAT-GFP ASSAY Positive Cell lines: U266” value (SIR-expressing Jurkat-NFAT-GFP cells cocultured with U266) does the source give for B3 here?
Its value is “U266 (+/−)”.

B4: 060717-T02 (protein)
chain: MALPVTALLLPLALLLHAARPDIQMTQSPSSLSASVGDRVTINCKASQDINSYLSWFQQKPGKAPKTLIYRANRLVDGVPSRFSGSGSGQDYTLTISSLQPEDFATYYCLQYDEFPLTFGGGTKVEIKLEIQNPDPAVYQLRDSKSSDKSVCLFTDFDSQTNVSQSKDSDVYITDKCVLDMRSMDFKSNSAVAWSNKSDFACANAFNNSIIPEDTFFPSSDVPCDVKLVEKSFETDTNLNFQNLSVIGFRILLLKVAGFNLLMTLRLWSSRAKRSGSGVKQTLNFDLLKLAGDVESNPGPTSMDWIWRILFLVGAATGAHSFEQVQLVQSGAEVKKPGASVKVSCKASGYTFTNYDINWVRQAPGQGLEWIGWIYPGDGSTKYNEKFKAKATLTADTSTSTAYMELRSLRSDDTAVYYCASGYEDAMDYWGQGTTVTVSSTREDLKNVFPPEVAVFEPSKAEIAHTQKATLVCLATGFYPDHVELSWWVNGKEVHSGVCTDPQPLKEQPALNDSRYCLSSRLRVSATFWQNPRNHFRCQVQFYGLSENDEWTQDRAKPVTQIVSAEAWGRADCGITSASYHQGVLSATILYEILLGKATLYAVLVSALVLMAMVKRKDSRGRAKRSGSGATNFSLLKQAGDVEENPGPSRGHMTEYKPTVRLATRDDVPRAVRTLAAAFADYPATRHTVDPDRHIERVTELQELFLTRVGLDIGKVWVADDGAAVAVWTTPESVEAGAVFAEIGPRMAELSGSRLAAQQQMEGLLAPHRPKEPAWFLATVGVSPDHQGKGLGSAVVLPGVEAAERAGVPAFLETSAPRNLPFYERLGFTVTADVEVPEGPRTWCMTRKPGA
For B4, which “NFAT-GFP ASSAY Positive Cell lines: HL60” value is on record?
Its value is “HL60 (2+)”.

B5: 090116-F02 (protein)
chain: MALPVTALLLPLALLLHAARPLEGKPIPNPLLGLDSTGSGEDLKNVFPPEVAVFEPSKAEIAHTQKATLVCLATGFYPDHVELSWWVNGKEVHSGVCTDPQPLKEQPALNDSRYCLSSRLRVSATFWQNPRNHFRCQVQFYGLSENDEWTQDRAKPVTQIVSAEAWGRADCGITSASYHQGVLSATILYEILLGKATLYAVLVSALVLMAMVKRKDSRGRAKRSGSGATNFSLLKQAGDVEENPGPTSMALPVTALLLPLALLLHAARPDDIVMTQSPDSLTVSLGERTTINCKSSQSVLDSSKNKNSLAWYQQKPGQPPKLLLSWASTRESGIPDRFSGSGSGTDFTLTIDSLQPEDSATYYCQQSAHFPITFGQGTRLEIKGGGGSGGGGSGGGGSQVQLVQSGAEVKKPGASVKVSCKASGYTFTNYGMNWVKQAPGQGLKWMGWINTYTGEPTYADDFKGRVTMTSDTSTSTAYLELHNLRSDDTAVYYCARWSWSDGYYVYFDYWGQGTTVTVSSTREQKLISEEDGSGIQNPDPAVYQLRDSKSSDKSVCLFTDFDSQTNVSQSKDSDVYITDKCVLDMRSMDFKSNSAVAWSNKSDFACANAFNNSIIPEDTFFPSSDVPCDVKLVEKSFETDTNLNFQNLSVIGFRILLLKVAGFNLLMTLRLWSSRAKRSGSGVKQTLNFDLLKLAGDVESNPGPSRGHMTEYKPTVRLATRDDVPRAVRTLAAAFADYPATRHTVDPDRHIERVTELQELFLTRVGLDIGKVWVADDGAAVAVWTTPESVEAGAVFAEIGPRMAELSGSRLAAQQQMEGLLAPHRPKEPAWFLATVGVSPDHQGKGLGSAVVLPGVEAAERAGVPAFLETSAPRNLPFYERLGFTVTADVEVPEGPRTWCMTRKPGA
modifications: Synthetic Immune Receptor (SIR)
B5 was tested. Which “NFAT-GFP ASSAY Positive Cell lines: HL60” value did it give?
Its value is “HL60 (+/−)”.

B6: 012517-I12 (protein)
chain: MALPVTALLLPLALLLHAARPLEGKPIPNPLLGLDSTGSGEDLKNVFPPEVAVFEPSKAEIAHTQKATLVCLATGFYPDHVELSWWVNGKEVHSGVCTDPQPLKEQPALNDSRYCLSSRLRVSATFWQNPRNHFRCQVQFYGLSENDEWTQDRAKPVTQIVSAEAWGRADCGITSASYHQGVLSATILYEILLGKATLYAVLVSALVLMAMVKRKDSRGRAKRSGSGATNFSLLKQAGDVEENPGPTSMALPVTALLLPLALLLHAARPDIQLTQSPSSLSASVGDRVTITCRASQGISSVLAWYQQKPGKAPKLLIYDASSLESGVPSRFSGSGSGTDFTLTISSLQPEDFATYYCQQFNSSITFGQGTKLEIKRTVAAGGGGSGGGGSGGGGSQVQLVQSGAEVKKPGSSVKVSCKASGGTFSDYAISWVRQAPGQGLEWMGRIIPILGVANYAQKFQGRVTITADKSTRTAYMELSSLRSEDTAVYYCARNWADAFDIWGQGTMVTVSSASTREQKLISEEDGSGIQNPDPAVYQLRDSKSSDKSVCLFTDFDSQTNVSQSKDSDVYITDKCVLDMRSMDFKSNSAVAWSNKSDFACANAFNNSIIPEDTFFPSSDVPCDVKLVEKSFETDTNLNFQNLSVIGFRILLLKVAGFNLLMTLRLWSSRAKRSGSGVKQTLNFDLLKLAGDVESNPGPSRGHMTEYKPTVRLATRDDVPRAVRTLAAAFADYPATRHTVDPDRHIERVTELQELFLTRVGLDIGKVWVADDGAAVAVWTTPESVEAGAVFAEIGPRMAELSGSRLAAQQQMEGLLAPHRPKEPAWFLATVGVSPDHQGKGLGSAVVLPGVEAAERAGVPAFLETSAPRNLPFYERLGFTVTADVEVPEGPRTWCMTRKPGA
With B6 as the molecule, how does the “NFAT-GFP ASSAY Positive Cell lines: HL60” value read?
The value was “HL60 (+/−)”.
